Laboratory results: the supplement of paper PMC9732359
± gives the uncertainty stated by the source.

Assay: protein stability index of a GFP-peptide fusion (yeast GPS) (PSI 1-4); higher = more stable; sorted into four equal gates, so the index is relative within each strain
How it was run: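 Each library plasmid carries Cherry plus GFP with a tiled 17-residue yeast protein peptide fused downstream, and the pooled library was carried in yeast. Mid-log cultures in leucine-free medium were sorted into four equal gates by GFP/Cherry ratio. Reads from Illumina sequencing of PCR-amplified plasmids from each gate were assigned to strains by barcodes. Per peptide, the protein stability index was computed as the summed products of gate read frequency and gate number.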

Sequence | protein stability index (doa10∆) | protein stability index (pdr5∆) | protein stability index (san1∆) | protein stability index (ubr1∆)
KTNIIEKAMDYAISIEN [RPN12] | 3.13 ± 0.18 | 3.25 ± 0.12 | 2.95 ± 0.1 | 3.45 ± 0.12
IINSTALMKEKDIRSTL [RPC82] | 3.12 ± 0.19 | 3 ± 0.099 | 2.97 ± 0.093 | 3.25 ± 0.09
VRNACKRLIAHDWLNAL [YCG1] | 2.74 ± 0.081 | 2.97 ± 0.1 | 2.83 ± 0.075 | 3.19 ± 0.064
TSTNGDSENNEENSSSN [RGR1] | 2.64 ± 0.18 | 3.18 ± 0.11 | 3.36 ± 0.11 | 2.95 ± 0.086
IEYCSAQPSVQSSFAGT [FAS2] | 2.72 ± 0.11 | 3.07 ± 0.094 | 2.77 ± 0.073 | 2.56 ± 0.059
VTLASILTTAVGLVSPS [RPN1] | 1.98 ± 0.13 | 1.55 ± 0.081 | 2.25 ± 0.19 | 2.85 ± 0.087
GSARTRWEMEAFGEFSL [FAS2] | 1.78 ± 0.072 | 2.92 ± 0.13 | 2.93 ± 0.098 | 2.24 ± 0.098
LIIQKIPSLQNNIEENL [ECM29] | 2.91 ± 0.067 | 2.88 ± 0.066 | 2.66 ± 0.065 | 2.98 ± 0.071
QRHIAVGKQIVNIPSFM [RPS9A] | 2.48 ± 0.056 | 2.74 ± 0.067 | 2.89 ± 0.082 | 2.8 ± 0.065
RLLPNGSNKAQISIIDI [YML031W/NDC1] | 2.91 ± 0.076 | 3.11 ± 0.067 | 2.6 ± 0.048 | 2.92 ± 0.035
DLKIEKLVLNISVGESG [RPL11A] | 2.81 ± 0.12 | 2.66 ± 0.095 | 2.52 ± 0.09 | 1.89 ± 0.09
DPKSPTKRSIAIVFEEI [YMR129W/POM152] | 2.73 ± 0.074 | 2.97 ± 0.087 | 2.77 ± 0.055 | 2.72 ± 0.078
TPLQSQLNLNNLTPANI [PGD1] | 2.98 ± 0.064 | 3.11 ± 0.053 | 2.99 ± 0.039 | 3.01 ± 0.04
RAIILERNAAYQKEYET [RPL7A] | 2.59 ± 0.067 | 2.81 ± 0.05 | 2.62 ± 0.05 | 2.89 ± 0.079
SSQVREHVKELLKYSNE [RPL1A] | 1.63 ± 0.077 | 2.23 ± 0.06 | 2.47 ± 0.085 | 2.13 ± 0.047
QGDEALSVDDIRGAVGN [RTT102] | 3.35 ± 0.096 | 3.49 ± 0.12 | 3.24 ± 0.059 | 3.41 ± 0.085
TLPEKKQFDSIFNSNKA [SIR4] | 2.71 ± 0.042 | 2.77 ± 0.045 | 2.82 ± 0.034 | 2.8 ± 0.035
WRQFGNRMQISPDQMRN [GRR1] | 3.07 ± 0.12 | 3.14 ± 0.12 | 2.89 ± 0.11 | 2.75 ± 0.11
KGIDSVVRRRFRGNISQ [RPL32] | 2.82 ± 0.14 | 2.94 ± 0.26 | – | 2.89 ± 0.12
DSRLSRKQIDETQVLVS [BRR2] | 1.61 ± 0.055 | 1.83 ± 0.073 | 1.82 ± 0.072 | 2.13 ± 0.041
AKPDEKKNDEVSKPAFS [YJL041W/NSP1] | – | 3.11 ± 0.19 | 2.94 ± 0.29 | 3.2 ± 0.14
NDIKLFVDDTNVYRVTV [PRP8] | 2.58 ± 0.084 | 2.63 ± 0.091 | 2.43 ± 0.072 | 2.57 ± 0.053
SVKLKQKRLEAGALNLA [DIS3] | 3.42 ± 0.13 | 3.11 ± 0.12 | 3.36 ± 0.081 | 3 ± 0.071
GYVIKVFNNGIVVLVPK [DIS3] | 2.59 ± 0.092 | 2.38 ± 0.079 | 2.39 ± 0.077 | 2.82 ± 0.067
SPYAAMLAAQDVAAKCK [RPS14A] | 2.28 ± 0.05 | 1.82 ± 0.048 | 1.62 ± 0.067 | 1.88 ± 0.048
KEHAPYTDELEEDVYLD [FAS2] | – | 3.48 ± 0.27 | – | 3.04 ± 0.26
KTSLMDLLVIDSHKRIP [SNU114] | 2.43 ± 0.069 | 2.73 ± 0.078 | 2.74 ± 0.063 | 2.41 ± 0.054

Sequence | protein stability index (doa10∆) | protein stability index (pdr5∆) | protein stability index (san1∆) | protein stability index (ubr1∆)
RKVENIRTILVNIHHLL [MED7] | 1.55 ± 0.04 | 1.74 ± 0.041 | 1.5 ± 0.087 | 1.32 ± 0.033
PHSLATKTTGKCGSVTV [RPS2] | 1.2 ± 0.12 | 1.27 ± 0.1 | – | –
SNNTGNTAFGNSNPTSN [YJL041W/NSP1] | 3.01 ± 0.15 | 3.19 ± 0.13 | 2.66 ± 0.15 | –
DDDISDDEEDEIEENCL [RPN4] | 3.48 ± 0.1 | 3.27 ± 0.089 | 3.14 ± 0.08 | 3.32 ± 0.1
NCEYEDPPNEGDPFDYK [RPB3] | 3.16 ± 0.13 | 3.4 ± 0.12 | 3.36 ± 0.11 | 3.14 ± 0.06
LSNFNADINLEESIRES [SIR3] | 3.16 ± 0.12 | 2.95 ± 0.12 | 2.75 ± 0.24 | 3.4 ± 0.094
LNEKFQELRKKVNPNIM [SMC2] | – | 2.61 ± 0.27 | 2.98 ± 0.2 | 2.81 ± 0.15
LGKKKNVKEEETVAKSK [RPS8A] | 3.22 ± 0.052 | 3.31 ± 0.05 | 3.335 ± 0.031 | 3.25 ± 0.039
FYMKKDAVEGVSECIIL [RPO31] | – | 3.07 ± 0.29 | 2.86 ± 0.14 | –
VEEYTWSSLLNEGLVEY [RPB2] | – | 3.2 ± 0.18 | 3.11 ± 0.089 | –
HLAICLDIINPGSVEEV [YDL116W/NUP84] | 2.66 ± 0.098 | 2.77 ± 0.089 | 2.46 ± 0.13 | 3.45 ± 0.088
SLSIKLATLHYQKKQYK [RPN6] | 1.33 ± 0.064 | 1.28 ± 0.061 | 1.34 ± 0.11 | 1.34 ± 0.079
SIVTVVSSAKFSGKYLK [RPL22B] | 2.8 ± 0.1 | 2.86 ± 0.11 | 2.73 ± 0.085 | 2.73 ± 0.093
SLAILGMNLLSNLSQNV [SWI1] | 2.44 ± 0.055 | 2.94 ± 0.058 | 2.69 ± 0.052 | 2.81 ± 0.046
TFANPNRTFTDPPFRIE [TAF14] | 2.35 ± 0.078 | 2.76 ± 0.075 | 2.7 ± 0.094 | 2.27 ± 0.039
TKRVEKPQLKFKSPIDN [RRP6] | 2.88 ± 0.052 | 3.03 ± 0.061 | 3.02 ± 0.039 | 3.137 ± 0.03
DSTNLSDDAAQFMKRFP [ECM29] | 2.65 ± 0.11 | 2.79 ± 0.073 | 1.45 ± 0.092 | 3.06 ± 0.1
KLNDSQRKTVNSDDILS [POP1] | 2.3 ± 0.075 | 1.99 ± 0.1 | 2.38 ± 0.087 | 2.89 ± 0.093
EVSGENVVEADLKRFVD [QCR2] | 3.31 ± 0.19 | 3.25 ± 0.13 | 3.36 ± 0.058 | 3.66 ± 0.067
ASILLALTQMDQDKVNF [RPB3] | 3.18 ± 0.11 | 3.28 ± 0.094 | 3.24 ± 0.073 | 2.93 ± 0.056
EQKLQTVLETLLSDVNQ [SMC3] | – | – | – | 1.22 ± 0.13
FADKKRDCIDISIFSTP [PRP8] | 3.2 ± 0.076 | 2.99 ± 0.072 | 2.87 ± 0.055 | 3.24 ± 0.068
TTLKLSPSPILLTSAGC [NUT1] | 1.47 ± 0.043 | 1.42 ± 0.039 | 1.45 ± 0.09 | 1.51 ± 0.036
DAWVSAAHYNRERIKRG [PRP8] | 2.76 ± 0.13 | 1.81 ± 0.099 | 2.6 ± 0.062 | 1.96 ± 0.15
SRYILFEIIFPPTDTNV [POP5] | 1.54 ± 0.069 | 1.41 ± 0.052 | 1.53 ± 0.086 | 1.77 ± 0.047
LLVGLIKTFYWLEQFLS [NUT1] | 2.24 ± 0.12 | 1.11 ± 0.076 | 1.34 ± 0.14 | 1.24 ± 0.074
NYASVYPVVEVERGRVG [RRP43] | 3.48 ± 0.14 | 3.57 ± 0.11 | 3.43 ± 0.093 | 3.42 ± 0.056
